Our source for the Sperm cells showing specific binding (%) values is patent publication US20090208977A1.

Assay [1] addresses human FMR1NB (ENSG00000176988) (human) (UniProt Q8N0W7). Kind of assay: flow cytometry, live human sperm; antibody not named (only one FMR1NB antibody was tried). A general note: Flow cytometry measures light scatter and fluorescence of single cells or particles in a stream.
The target of assay [2] is human BRS3 (ENSG00000102239) (human) (UniProt P32247). Kind of assay: flow cytometry, live human sperm; antibody not named (SC33404 is the only BRS3 antibody that bound).
Sequence of UniProt P32247 (P32247 whole entry): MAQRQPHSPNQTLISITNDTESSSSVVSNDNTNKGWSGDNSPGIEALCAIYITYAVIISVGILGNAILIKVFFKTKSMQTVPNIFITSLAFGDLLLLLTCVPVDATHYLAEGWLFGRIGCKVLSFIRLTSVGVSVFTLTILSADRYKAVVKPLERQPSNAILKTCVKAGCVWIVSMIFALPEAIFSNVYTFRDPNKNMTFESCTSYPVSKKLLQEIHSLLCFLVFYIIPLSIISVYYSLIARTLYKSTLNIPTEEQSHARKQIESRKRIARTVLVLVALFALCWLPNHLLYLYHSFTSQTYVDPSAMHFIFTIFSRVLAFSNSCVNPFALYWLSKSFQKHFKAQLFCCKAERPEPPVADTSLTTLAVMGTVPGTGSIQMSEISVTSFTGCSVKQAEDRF

Sequence of UniProt Q8N0W7 (Q8N0W7 whole entry): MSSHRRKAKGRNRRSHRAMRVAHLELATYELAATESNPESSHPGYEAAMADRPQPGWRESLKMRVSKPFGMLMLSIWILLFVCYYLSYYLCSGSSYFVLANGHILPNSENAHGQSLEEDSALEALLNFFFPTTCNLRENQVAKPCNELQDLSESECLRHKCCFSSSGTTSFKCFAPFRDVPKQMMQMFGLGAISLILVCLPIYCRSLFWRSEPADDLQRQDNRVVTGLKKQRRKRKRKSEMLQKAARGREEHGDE

With “FMR1NB antibody, Proteintech Group 11069-2-AP”, in assay [1], the Sperm cells showing specific binding (%) came out at 29.7%.
In assay [2], “BRS-3 (N-14), Santa Cruz Biotechnology SC-33404 (antibody)” registered a Sperm cells showing specific binding (%) of 10.7%.
